Molecular target: C1q
Experiment: C1q binding assay, format not stated

**Q.** For rituximab (antibody), which EC50 is on record?
**A.** 0.9 µg/mL

Source: patent US20250281608A1
